Earlier results on one substance are cited in article PMC6451932.

This data set has as its target fibrinogen β peptide (Fgβ) (Homo sapiens) (UniProt P02675).

pKd: −log10 of the molar value.

For the substance SdrG (from UniProt Q9KI13), the pKd (in general, −log10 of the Kd, conventionally taken in molar units) is 6.52.
